Measured values from patent publication US20220162314A1.

Biological target: Recombinant human CD8ab protein (extracellular domains of CD8a and CD8b with leucine zippers and tags) (human) (UniProt P01732)
Experiment: ELISA: antigen coated on the plate, antibody titrated, anti-IgG (Fc)-HRP and TMB, A450

Chain of Recombinant human CD8ab protein (extracellular domains of CD8a and CD8b with leucine zippers and tags) (human) (P01732 22-182, chain 1 of 2): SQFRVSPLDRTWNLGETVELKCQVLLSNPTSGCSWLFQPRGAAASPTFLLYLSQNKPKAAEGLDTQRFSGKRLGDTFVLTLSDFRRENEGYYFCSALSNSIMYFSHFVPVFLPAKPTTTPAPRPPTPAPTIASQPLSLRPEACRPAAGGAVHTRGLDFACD
Chain of Recombinant human CD8ab protein (extracellular domains of CD8a and CD8b with leucine zippers and tags) (human) (P10966 22-170, chain 2 of 2, further chain): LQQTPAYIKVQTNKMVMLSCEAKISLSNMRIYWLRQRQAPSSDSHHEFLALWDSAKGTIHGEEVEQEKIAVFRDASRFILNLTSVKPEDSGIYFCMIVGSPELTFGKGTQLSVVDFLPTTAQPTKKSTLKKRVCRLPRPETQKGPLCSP

B1: xhCD8a1 (clone OKT8, Invitrogen) (antibody, from another filing, V domains shown)
VH: EVQLQQSGAELVKPGASVKLSCTASGFNIKDTYIHFVRQRPEQGLEWIGRIDPANDNTLYASKFQGKATITADTSSNTAYMHLCSLTSGDTAVYYCGRGYGYYVFDHWGQGTTLTVSS
VL: DVQINQSPSFLAASPGETITINCRTSRSISQYLAWYQEKPGKTNKLLIYSGSTLQSGIPSRFSGSGSGTDFTLTISGLEPEDFAMYYCQQHNENPLTFGAGTKLELK
- EC50 (read off the curve): 0.2 nM
